The text below walks through data of article PMC8560819, “Dynamic interactions and Ca^2+-binding modulate the holdase-type chaperone activity of S100B preventing tau aggregation and seeding” (Nature Communications, 2021).

B1: R3 peptide (peptide)
peptide: Ac-PGGGSVQIVYKP-NH2
notes: 12-residue tau peptide within K18 that holds PHF6 (306-VQIVYK-311); source: synthetic peptide, bought: Genecust (France)
B2: S100B (natural protein)
chain: MSELEKAMVALIDVFHQYSGREGDKHKLKKSELKELINNELSHFLEEIKEQEVVDKVMETLDNDGDGECDFQEFMAFVAMVTTACHEFFEHE
notes: the crystal structure PDB 2H61 and the assignment BMRB 27199 were used for it; Used unlabelled or uniformly 15N-labelled (M9 medium with 15N-ammonium chloride); also called S100B-Ca^2+; apo S100B
B3: R0 peptide (peptide)
peptide: Ac-REPKKVAVVRTP-NH2
notes: 12-residue tau peptide from the proline-rich region, holds Thr231; also called RO; source: synthetic peptide, bought: Genecust (France)
B4: R2 peptide (peptide)
peptide: Ac-PGGGKVQIINKK-NH2
notes: 12-residue tau peptide within K18 that holds PHF6* (275-VQIINK-280); source: synthetic peptide, bought: Genecust (France)

Series [1] deals with B2. Kind of series: NMR titration; 100 µM 15N-S100B titrated with 50 to 750 µM tau peptide; 50 mM Hepes pH 6.8, 1.25 mM CaCl2, 298 K; Kd from chemical shift perturbation of 11 resonances. Particulars: both partners purified.
Series [2] concerns the molecule itself. Kind of series: SEC-SAXS; Superdex 200 (3.2/300), 50 mM Tris-HCl, 100 mM NaCl, 2% glycerol, 2 mM CaCl2, pH 7.9; S100B alone, S100B mixed with equimolar K18, or K18 alone, 12–13 mg/ml.

With B1, the Kd in series [1] turned out to be 266 µM.
In the case of B2, in series [2], the “stoichiometry N” value is 2.
Consider B3, for which, in series [1], the Kd came to 519 µM.
B4: in series [1], the Kd turned out to be 163 µM.
